In US20050287132A1, “Biliverdin reductase fragments and variants, and methods of using biliverdin reductase and such fragments and variants” (University of Rochester, priority 1999, published 2005):
Substitutions are numbered along the chain they refer to.

T1: biliverdin reductase (Homo sapiens, UniProt P53004, A154S/E160D/G155D/G17A)
T1 construct: used to amplify the full-length cDNA by PCR as described in purification of cloned reductase; GST (N, cleaved yes); made in house; host or cells: E. coli
T1 sequence (P53004 1-296 G17A/A154S/G155D/E160D): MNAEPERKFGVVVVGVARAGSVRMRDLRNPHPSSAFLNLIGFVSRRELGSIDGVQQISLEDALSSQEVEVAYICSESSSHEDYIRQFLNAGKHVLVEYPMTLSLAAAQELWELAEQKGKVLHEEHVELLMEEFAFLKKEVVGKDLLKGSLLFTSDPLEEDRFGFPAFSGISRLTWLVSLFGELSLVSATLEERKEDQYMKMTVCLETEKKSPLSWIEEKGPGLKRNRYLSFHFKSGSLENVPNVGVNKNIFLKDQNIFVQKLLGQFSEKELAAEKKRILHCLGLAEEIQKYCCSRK

B1: rat biliverdin reductase as used in the PKC activity assays (protein)
chain: AEPKRKFGVVVVGVGRAGSVRLRDLKDPRSAAFLNLIGFVSRRELGSLDEVRQISLEDALRSQEIDVAYICSESSSHEDYIRQFLQAGKHVLVEYPMTLSFAAAQELWELAAQKGRVLHEEHVELLMEEFEFLRREVLGKELLKGSLRFTASPLEEERFGFPAFSGISRLTWLVSLFGELSLISATLEERKEDQYMKMTVQLETQNKGLLSWIEEKGPGLKRNRYVNFQFTSGSLEEVPSVGVNKNIFLKDQDIFVQKLLDQVSAEDLAAEKKRIMHCLGLASDIQKLCHQKK
B2: Lys^296 mutant: hBVR with Lys^296→Ala at the C terminus within a substrate binding domain (protein, UniProt P53004 3-296, looked up, variant K296A)
Biliverdin reductase A: AEPERKFGVVVVGVGRAGSVRMRDLRNPHPSSAFLNLIGFVSRRELGSIDGVQQISLEDALSSQEVEVAYICSESSSHEDYIRQFLNAGKHVLVEYPMTLSLAAAQELWELAEQKGKVLHEEHVELLMEEFAFLKKEVVGKDLLKGSLLFTAGPLEEERFGFPAFSGISRLTWLVSLFGELSLVSATLEERKEDQYMKMTVCLETEKKSPLSWIEEKGPGLKRNRYLSFHFKSGSLENVPNVGVNKNIFLKDQNIFVQKLLGQFSEKELAAEKKRILHCLGLAEEIQKYCCSRA
B3: NLS mutant: hemagglutinin tagged hBVR with amino acids 222-227 changed from GLKRNR to VIGSTG (SEQ. ID. No. 25) (protein, UniProt P53004 3-296, looked up, variant G222V L223I K224G R225S N226T R227G)
Biliverdin reductase A: B2 Biliverdin reductase A with G220V, L221I, K222G, R223S, N224T, R225G, A294K
modifications: hemagglutinin tag
B4: Gly^17: hBVR SEQ. ID. No. 1 with Gly^17→Ala within the nucleotide binding domain (protein, listed as Homo sapiens)
chain: T1 sequence (P53004 1-296 G17A/A154S/G155D/E160D)
B5: Ser^149: hBVR SEQ. ID. No. 1 with Ser^149→Ala within the kinase motif of the leucine zipper (protein, listed as Homo sapiens)
chain: T1 sequence (P53004 1-296 G17A/A154S/G155D/E160D) with A17G, S149A

Tests used:
[1] = molecular target: protein kinase C (a mixture containing equal amounts of isozymes α, β and γ) (Promega)
biliverdin reductase [2] = experiment: Phosphorylation state of hBVR, SDS-PAGE immunoblot with anti-phospho antibodies; format: biochemical, human; conditions: anti-phospho mix blot, corrected for protein loading
Protocol: (§1) Purified protein was subjected to 12.5% SDS-PAGE and the protein transferred to PVDF membrane. The membrane was subsequently treated as for Western blotting, using anti-phosphoserine, anti-phosphotyrosine or anti-phosphothreonine, at 2 μg/ml, or a mixture of all three antibodies as the primary antibody. The secondary antibody was goat anti-rabbit horseradish peroxidase at a 1:1000 dilution and detection was carried out using the ECL reagent kit (NEN Life Sciences) according to the manufacturer's instructions.

[3] = Biliverdin reductase catalytic activity of recombinant wild type and mutant hBVR (Example 2, FIG. 3); format: biochemical, human
Protocol: FIGS. 3A-C are graphs depicting the effects of mutation of Gly^17, Ser^149, and Lys^296 on BVR catalytic activity. Purified preparations of recombinant wild type and mutant BVR with substitution of Gly^17 (FIG. 3A), Ser^149 (FIG. 3B), or Lys^296 (FIG. 3C) with Ala were assessed for BVR activity at pH 6.5 using NADH as cofactor and at pH 8.7 with NADPH as cofactor. Values presented are in percent wild type activity for each pH. The specific activity of the wild type preparation was 1744 nmol bilirubin produced min^−1 mg^−1 at pH 6.5 and 1147 nmol bilirubin produced min^−1 mg^−1 at pH 8.7. Values presented are representative of 2-4 determinations.
GST-BVR fusion proteins were prepared as described in Example 1. Human kidney biliverdin reductase was purified to homogeneity as described by Maines et al., Arch. Biochem. Biophys. 300:320-326 (1993), which is hereby incorporated by reference. The purified reductase preparations were judged to be homogenous by SDS-PAGE. Protein concentration was determined by the method of Bradford, Anal. Biochem. 72:248-254 (1976), which is hereby incorporated by reference.
Activity was determined as previously described by Huang et al., J. Biol. Chem. 264:7844-7849 (1989), which is hereby incorporated by reference, using NADPH as the cofactor at pH 8.7 in 0.1 M […] or NADH at pH 6.5 in […]. The rate of activity was measured as the increase in 450 nm absorbance at 25° C. Specific activity is expressed in units/mg protein, where 1 unit catalyzes the formation of 1 nmol bilirubin/min.

HeLa cells = experiment: Nuclear translocation of hemagglutinin-tagged BVR constructs after 8-bromo-cGMP, immunofluorescence; format: cell-based, human; conditions: 500 μM 8-bromo-cGMP, 5 min (up to 60 min)
Protocol: HeLa cells were grown on glass cover slips in DMEM medium containing 10% FBS under an atmosphere of 5% CO2. Cells were transfected with different BVR constructs using Lipofectamine, as described by the manufacturer. Briefly, cells were treated with a mixture of 2 μg DNA and 20 μl Lipofectamine for 5 h followed by the addition of DMEM medium. After 48 h, cells were treated with 500 μM 8-bromo-cGMP for 5, 20 or 60 min, fixed with 4% paraformaldehyde for 10 min. Cells were then rinsed with phosphate-buffered saline, incubated with 5% goat serum to block nonspecific binding sites and then with monoclonal anti hemagglutinin primary antibody and FITC conjugated secondary antibody. Cells were visualized by direct fluorescence microscopy.

biliverdin reductase [4] = molecular target: T1, biliverdin reductase; experiment: Phosphorylation state of hBVR, SDS-PAGE immunoblot with anti-phospho antibodies; format: biochemical; conditions: versus wild type
Protocol: as §1

[5] = Biliverdin reductase activity of E. coli expressed hBVR wild type and mutants (Example 1); format: biochemical, human; conditions: for Activity (nmol bilirubin/min/mg) pH 6.7 + NADH: pH 6.7, NADH cofactor; for Activity (nmol bilirubin/min/mg) pH 6.7 + NADH / Activity (nmol bilirubin/min/mg) pH 8.7 + NADPH: 25°; for Activity (nmol bilirubin/min/mg) pH 8.7 + NADPH: pH 8.7, NADPH cofactor
Protocol: SalI linkers are underlined in each primer. The products were digested with SalI and cloned into the vector pGEX 4T-2. Orientation was determined by restriction analysis and confirmed by sequencing. The ligation places the BVR coding region in frame with the GST protein of the vector. GST-BVR fusion proteins were purified from bacterial clones containing the plasmid, and grown overnight using a glutathione-sepharose 4B column (Pharmacia). The reductase portion of the fusion protein was released by thrombin protease treatment.
Activity was determined as previously described (Kutty et al., J. Biol. Chem. 256:3956-3962 (1981); Huang et al., J. Biol. Chem. 264:7844-7849 (1989), which are hereby incorporated by reference). Activity was determined in a 1 ml assay volume that contained 0.1 M Tris/HCl, pH 8.7 NADPH (100 μM), and biliverdin (5 μM). Reductase activity was also measured using NADH (1 mM) as the cofactor; in this case 0.1 M potassium phosphate pH 6.75, was substituted for Tris/HCl. SDS/PAGE was performed by the method of Laemmli, Nature 227:680-685 (1970), which is hereby incorporated by reference. Western blot analysis was performed using anti-serum to human kidney biliverdin reductase as previously described (Maines et al., Arch. Biochem. Biophys. 300:320-326 (1993), which is hereby incorporated by reference). The relative amounts of immunoreactive protein were determined by scanning the blot using a laser densitometer and comparing the area under the peak for each mutant with the wild type. The rate of activity was measured as the increase in 450 nm absorbance at 25° C. Specific activity is expressed as nmol bilirubin/min/ mg protein.

Molecule | autophosphorylation activity (biliverdin reductase [2]) | BVR catalytic activity versus wild type ([3]; pH 6.5, NADH) | BVR catalytic activity versus wild type ([3]; pH 8.7, NADPH) | Activity (nmol bilirubin/min/mg) pH 6.7 + NADH [5] | reductase activity relative to the control (wild type) ([5]; pH 6.7 with NADH) | Activity (nmol bilirubin/min/mg) pH 8.7 + NADPH [5] | other results
B1 |  |  |  |  |  |  | Km of the PKC reaction for the substrate MBP, upon addition of BVR [1]: substrate Km increasing from 0.145 to 0.16 upon addition of BVR to the reaction; PKC activity, incorporation of 32P into MBP, after 15 min preincubation of PKC with varying concentrations of BVR [1]: incorporation of ^32P into MBP was increased in a dose-dependent manner in the presence of BVR; Vmax of the PKC reaction with respect to ATP, in the presence of 50 µM BVR [1]: increased from 3.3 to 4.9 and 1.7 to 2.9 pmol/min, respectively; Vmax of the PKC reaction with respect to MBP, in the presence of 50 µM BVR [1]: increased from 3.3 to 4.9 and 1.7 to 2.9 pmol/min, respectively
B2 | essentially comparable to that of the wild type protein | doubling of activity | doubling of activity |  |  |  | 
B3 |  |  |  |  |  |  | nuclear localization in response to 8-bromo-cGMP (HeLa cells): not detected
B4 |  | essentially inactive | essentially inactive | 698 nmol bilirubin/min/mg | 20-25% | 0 nmol bilirubin/min/mg | reduction in phosphorylation (biliverdin reductase [4]; anti-phospho mix, laser densitometry): approximately 50%; reduction of phosphoserine signal (biliverdin reductase [4]; anti-phosphoserine): approximately 50%; reduction in phosphothreonine signal (biliverdin reductase [4]; anti-phosphothreonine): not evident; reduction of phosphotyrosine signal (biliverdin reductase [4]; anti-phosphotyrosine): approximately 50%; reductase activity relative to the control (wild type) ([5]; pH 8.7 with NADPH): inactive
B5 | essentially comparable to that of the wild type protein | essentially inactive | essentially inactive | 0 nmol bilirubin/min/mg | inactive | 231 nmol bilirubin/min/mg | reductase activity relative to the control (wild type) ([5]; pH 8.7 with NADPH, listed as Ser^149 mutant): minimal activity
